Measured values reported in the DeepSol protein solubility set.

Experiment: soluble on expression in E. coli; label from the status in PepcDB or PDB records

Sequence	soluble on expression in E. coli
MGSDKIHHHHHHGNDDFPAEEPKVPLEITSAFVTGDVQTRAVTPELLTSGSIGVFLEGRSGTGYDKKDNIQYDYNVGWKPKTETIYLGGEDADVCAYKKTTKLDLSAKEAVPLVSQIYDAEIDLVYATNQTVNGTSAGKSVEFTMGHAYSQIEFVFSREDYPNTCKVTEITVENANIIKTATLNLATGGYTPVTVEKVSYWTNVAKHEDGIAVPESGTVKSNVLMIPCTLANAGGTGVTLELKVDGKLMTVPIAHDKLGALTAGVIHQISLKLKGTALEISVKDTPWDNQPVDGEYNPEP	not soluble
MSIVMQLQDVAESTRLGPLSGEVRAGEILHLVGPNGAGKSTLLARMAGMTSGKGSIQFAGQPLEAWSATKLALHRAYLSQQQTPPFATPVWHYLTLHQHDKTRTELLNDVAGALALDDKLGRSTNQLSGGEWQRVRLAAVVLQITPQANPAGQLLLLDEPMNSLDVAQQSALDKILSALSQQGLAIVMSSHDLNHTLRHAHRAWLLKGGKMLASGRREEVLTPPNLAQAYGMNFRRLDIEGHRMLISTI	soluble
MDLSELERDNTGRCRLSSPVPAVCLKEPCVLGVDEAGRGPVLGPMVYAICYCPLSRLADLEALKVADSKTLTENERERLFAKMEEDGDFVGWALDVLSPNLISTSMLGRVKYNLNSLSHDTAAGLIQYALDQNVNVTQVFVDTVGMPETYQARLQQHFPGIEVTVKAKADSLFPVVSAASIFAKVARDKAVKNWQFVENLQDLDSDYGSGYPNDPKTKAWLRKHVDPVFGFPQFVRFSWSTAQAILEKEAEDVIWEDSEAEEDPERPGKITSYFSQGPQTCRPQAPHRYFQERGLEAASSL	soluble
MEENSIKIHKWLYPASWLYGAGVALRNKLFDWGKLQSKSFNVPIICIGNIAVGGTGKTPHTEYLIKLLHDEFQVAVLSRGYKRHTKGFVLSTAESDARSIGDEPYQIQSKFSDIRVAVDEDRCHGIERLLTLKEPPVEVILLDDAFQHRYVKAGLNILLTDYHRLFCDDTLMPAGRLRESAQGKNRAQIVIVTKCPPDIKPIDYNIITKRLNLFPYQQLYFSSFRYGNLRAVFPDCATVQERKLSSLQTEEQILLITGIASPDTIIRELEIHTRNIDLLAFSDHHNFSQRDLAQIKERFGKLRKGQRLIVTTEKDATRLICHQELDEGLKPFIYALPIEVEILQNQQDNFNQHIIGYVRENTRNGSLPERKDAHKSLEHHHHHH	soluble
MLQRSVFFLSDRTGITAETLGHSLLTQFDGIEWKKHYASFLDSAAKAQAVIEQINTIAEQEGQPALVFSTLLDPVMLASIRRADCVLFDFFETCLGTLEAVLQQPPARIPGRSHVLRQDASYFRRIAAIQYALNSDDGANAKILADADVIVVGVSRTGKTPVCVYLALQYGVLAANYPFTPEDMGAIQLPPLLQPLRKKLFGLTLNTSRLQSIREERYPGSHYASFAECQRELQWQNELYRQFDIPSINTTDVSIEEISASIVNRAHLERRQHGTLEHHHHHH	not soluble
NYKREIKQVENYLSARRESGHFIGKENIDIYYEKYVIPNSKNSIVISHGFRESMVKYNETIYYFLKNGYSVYGLEHRGHARSGRLGKDSTQTSVDNFDYYVDDFKKYVDTIVEPDNRGKNLFLYAHSMGGAIGGLFLERYPKYFKAAVLSSPMFEVDTGRYPEFLSRAVASVFNFVNLGDTYAPGHHEYSCESDFENSCTTSNIRYDYYLDKTNKSRKIENGGASFKWVKESLKATDEVTDGKNASKVTIPVLLFQAENDDIVRPGGQDKFAKEAKKCKLIVIKNSKHEIYREKDSIMVPYFNKVFTFLNNNK	not soluble
MSALRSVLLLCWRDIGHPQGGGSEAYLQRIGAQLAASGIAVTLRTARYPGAPRHELVDGVRISRAGGRYSVYLWALLAMAAARCGLGPLRRVRPDVVVDTQNGWPFVARLLYGRRSLVLVHHCHREQWPVAGRMMGRLGWYVESMLSPRLHRRNQYVTVSLPSARDLIALGVDSERIAVVRNGLDEAPSPTLSGPRAPTPRVVVLSRLVPHKQIEDALAAVAELQPRIPGLHLDIVGGGWWRQRLVDHVHRLDIADAVTFHGHVDDVTKHHVLQSSWVHLLPSRKEGWGLAVIEAAQHGVPTIGYRSSGGLADSIVDGVTGILVDDRAELVAWLEQLLSDSVLRDQLGAKAQARSGEFSWRQSAEALRSVLEAVQASRFVSGVV	soluble
QITGIETGFYDFDKLITGLHEDQLIVLAARPAMGKTALALNIAQNVATKSNKAVAVFSLEMGAESLVERMLSAEGTIINHHIRTGNLTVNEWQRLIYAQGQLAEAPIFIDDTAGVKITDIRARARRLSQETDGLGLIVIDYLQLIQGSRSDNRQQEVSEISRQLKIIAKELKVPVIALSQLSRGVEQRNDKRPIMSDL	not soluble
